The text below walks through data of paper PMC1142404 (Nucleic Acids Research, 2005).

Series [1] deals with T1, aCBF5 protein (archaeal CBF5 RNA:Ψ-synthase), Pyrococcus abyssi, cleaved from GST (Pyrococcus abyssi, UniProt Q9V1A5 1-334).
T1 sequence (looked up): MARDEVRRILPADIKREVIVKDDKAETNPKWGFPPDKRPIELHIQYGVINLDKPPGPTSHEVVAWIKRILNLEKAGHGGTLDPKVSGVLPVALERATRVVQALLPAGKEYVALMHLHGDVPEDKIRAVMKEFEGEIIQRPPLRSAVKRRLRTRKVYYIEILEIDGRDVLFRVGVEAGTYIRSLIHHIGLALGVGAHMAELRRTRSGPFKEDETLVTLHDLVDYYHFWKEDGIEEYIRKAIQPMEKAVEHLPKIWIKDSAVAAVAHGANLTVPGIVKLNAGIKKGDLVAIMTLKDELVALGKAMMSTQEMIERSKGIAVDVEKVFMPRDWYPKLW
Nature of the series: pull-down.

Series [2] deals with T1, aCBF5 protein (archaeal CBF5 …). The series is described as follows: native gel or EMSA.
The next series deals with T2, aCBF5 (Pyrococcus abyssi GE5, UniProt Q9V1A5 1-334).
T2 sequence: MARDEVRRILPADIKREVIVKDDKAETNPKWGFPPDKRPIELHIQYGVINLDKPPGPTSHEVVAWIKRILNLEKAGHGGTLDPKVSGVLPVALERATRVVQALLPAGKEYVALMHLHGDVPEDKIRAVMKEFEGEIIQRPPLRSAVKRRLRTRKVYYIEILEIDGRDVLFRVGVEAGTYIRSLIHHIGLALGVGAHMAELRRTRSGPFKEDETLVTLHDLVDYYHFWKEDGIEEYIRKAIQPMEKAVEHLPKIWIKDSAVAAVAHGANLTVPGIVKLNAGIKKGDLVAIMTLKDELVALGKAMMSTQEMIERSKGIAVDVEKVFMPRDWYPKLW
Nature of the series: EMSA. (Mobility shift assays separate free from complexed probe on a gel.)

A further series addresses T3, aCBF5;aNOP10 (Pyrococcus abyssi GE5;Pyrococcus abyssi …, UniProt Q9V1A5;Q9V0E3 1-334;1-60, |).
T3 sequence 1: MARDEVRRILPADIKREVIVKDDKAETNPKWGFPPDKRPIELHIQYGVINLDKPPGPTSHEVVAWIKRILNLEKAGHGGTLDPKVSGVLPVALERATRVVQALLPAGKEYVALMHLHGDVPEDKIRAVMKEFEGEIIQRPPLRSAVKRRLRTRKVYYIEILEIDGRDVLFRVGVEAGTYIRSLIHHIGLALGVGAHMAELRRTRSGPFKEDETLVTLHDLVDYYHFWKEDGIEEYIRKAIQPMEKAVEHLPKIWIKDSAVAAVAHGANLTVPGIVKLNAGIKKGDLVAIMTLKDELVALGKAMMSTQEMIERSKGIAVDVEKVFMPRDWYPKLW
T3 sequence 2: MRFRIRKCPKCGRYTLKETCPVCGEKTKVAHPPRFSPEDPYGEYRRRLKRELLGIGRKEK
Nature of the series: EMSA.

B1: GST-aNOP10 fusion protein (natural protein, Pyrococcus abyssi, UniProt Q9V0E3 1-60, looked up)
chain: MRFRIRKCPKCGRYTLKETCPVCGEKTKVAHPPRFSPEDPYGEYRRRLKRELLGIGRKEK
As for B1, the binding result in series [1] is recorded as “binds”.

B2: aNOP10 protein, Pyrococcus abyssi, cleaved from GST (natural protein, UniProt Q9V0E3 1-60, looked up)
chain: MRFRIRKCPKCGRYTLKETCPVCGEKTKVAHPPRFSPEDPYGEYRRRLKRELLGIGRKEK
For B2, in series [2], the binding result was “binds”.

B3: Pab91mtGA (structured_RNA)
RNA: GGGUAAUGCCCCUCCCCUCUCACACCUCCGGGAUCAGUCCCCGGAGGGCGGUCGGGGAGGGGACACCU
B3: the binding result with aCBF5 and with aCBF5;aNOP10 was “binds” in each case.
